Test: label from the status in PepcDB records
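Also: failed if final PepcDB status was selected cloned or expressed and not failed if soluble or beyond.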

Sequence	protein production
MTNNSTKVCVLLATYNGTKWCLDQVKSILNQEDVNLEVFVSDDLSSDSTTDLLALLNDSRIHILASSYKFGSACQNFFRLVRDVDFSEYDYIAFADQDDLWNPNKLSYSIEQLNAHCADAFSSNVTAFWPDGRARLIVKDQPQREWDFLFESAGPGCTFVLTKKLACNLANFLHNNYEKTKGVALHDWFTYAFARSNSYSWWIDSQPTMMYRQHESNEFGVNSGVTAALSRFRKTSNGWYRNQVILIGDLVGAEDSWPIKRMRRFSLLDRMLLLFNVFAFRRSFRDRIALFFLLLLPQKKLEHHHHHH	not failed
MTNSEVSTDLPDKPTSDNEQPDKATSDKEQLGKPPSDRDLRNPTSRLRARLQLIGGALASIAAIGAIAGGLVGYWTVWKTLRTDVFPDKQQTQREATARPDVAPRLSLVVLPFANLNNDPEQDYFADSITTDLTTDLAQMPGAFVIGRGTAFTFKNKQIDFKTLGKELGIRWAVQGAVRRNGDQIRVNVSLTDAASGRDIWSDRFDGDRTNLAALQDQITGRLARSLNIELMQAESRRSEKDQSRNPDAMDFTMRGWAKFYEPRSKTEIAQAKDLFDRALHLDPDNVDAMIAKAWCLAIAAGFRWSTSMAEDKEIATDLIDRALAKSSSNALAYVVKGDTLRVFGRPEEALPEYDAALEINPNFPIAYAQKGLALILSGRAREAFSPLQLALRLSPKDPIAVSWYYNLCHAHLHLQEYEEATKDCRRVININNAFWYAYVDLVSAYGASGQLEPARQSLTELNKIRPDFTIQWFREFGYGYSSNPQFRREFDEILDGLRKGGVREQ	failed
MTNTRNENLGYVYGLIAVTAFALTLPAMRAALSALDPVFVALGRGAGAAVLAAVFLWFTRQRLPTREEAKGLIIVAAGAVIGFPLLAAWAMLYVDASHGGVVLGILPLATAVAAALFSNERPSMKFWLFALIGAGLVVGYSLSRAGGTLHPADLALFGSIVCAGVSYAEGARLSKSLGGPQVISWALVFSFPILIIPAIHYAPVSLNLPLESWLGFIYLTVISQYLGFFPWYHGLALGGIAKVGQTQLLQPFLTIIASVLLLGEHADLMTWLVATLVVAVVAVGKHAQVKHNDPESATIADTSPHS	failed
MTNVGRPIETHAITVGQGSDARSIAALVRAPAQDERPTCIWLGGYRSDMTGTKALEMDDLAASLGVGAIRFDYSGHGASGGAFRDGTISRWLEEALAVLDHFKPEKAILVGSSMGGWIALRLIQELKARHDNPTQVSGMVLIAPAPDFTSDLIEPLLGDRERAELAENGYFEEVSEYSPEPNIFTRALMEDGRANRVMAGMIDTGCPVHILQGMADPDVPYQHALKLVEHLPADDVVLTLVRDGDHRLSRPQDIDRMRNAIRAMIEPRP	not failed
MTPAARLSAAIGILDRILGGTPAEQALTNWGRASRFAGSGDRAAVRDLVFDALRCRRSFARAGGAETGRGLVLGGLRMAGQEVGDLFTGEGHAPAPPAGSELKPQAPAELEALDCPDWLAPALRDSLGADFAPVMEALRHRAPVFLRVNLARTDRAAAAAELAAEGIVTQPHPLAETALEVTENPRRLQASAAYREGRVELQDAASQAIVAALPLAPGDRVLDYCAGGGGKSLAMAARAPIDLSAHDADPRRMRDLPERAARAGVKVRRLAPGDPARRGPFDLVLADVPCSGSGSWRRAPEGKWSLTPERLAELRAIQSTILDEVAPLVRPGGHLAYATCSLLASENAGQTEAFLERTSGWTRVHQLRLTPLDGGDGFFLDLLQRNG	failed
MTPATTTLVFTYGTLKRGFSNHVLMQDLIRSGDASFKGVYQTLDKYPLVCGPYRVPFLLNKPGSGYHVNGELYAVSPRGLSRLDELEGISRGHYIRQPIRLAAAEEEEEEEGDLETEAPSSCVVEAYYAHKSYEEELWRRNRGRSFGAYTENEARGYVKRNDRPQHLSFLDHIRIFVSSPCD	failed
MTPDIRLRVDGRAIVLLTAGCAPGLCPAFAFWACKASAPGRSIAVTPMRSEQQQTDQHADTLHPYACECHAAHLPSSRKKARMRASLFKFGLNLWRPFLFAGIHVTVLSEDYRFARVELRHRPWNRNYVGTHFGGSLFAMTDPFWMLLTIHNLGRDYYVWDKAGNIEFVKPGRGTLTADFVIDDSLLAQLRQATASGEKHLRWFENEVHHRDGEVVARVRKQLYVKRKPAR	failed
MTPFPAYVPPDFTRPDLAAAPPVRVAEAPGSGVLPAGFHATSNYPEYVHLGGGRWLLASGSRMDAVLVLDGDMLRVVEPRLVRRGDRVVVGRTENGEEGIYVHTTGFDAPAGAGGDKFTFRSRGTRESPFSRSYEELYDILRHDRDHGHIVWVLGPAVAFDRDSRAAMAGLIGGGYCHALLAGNALATHDLEAALFHTGLGQDIYTQALVAGGHYHHLDVINEVLRHGSLERAIAELGIRDGIIRACLEHRVPVVLAGSIRDDGPLPDVITDSRQAQDAMRAHARRATTVIALATQLHAIAVGNMTPSYRVLDDGTVRPVYFYIVDMSEFGADKLANRGSGQARAILTNVQDFMVNLWNNLKG	failed
MTPFTLCAATSSGNPHNNHYPNHHHITDQTSLEQVAWLDHVAATYTGDRRSSASFISSDCVVMDIDNDHTDNPDEWITPDDLAELMAGVEFMTATSRNHQKPKRTLSARPRFHVYFPISPVTDADTYAGLKRRLAGRFGFFDPQALDAGRFIYGTTNPETTIHNGTKLLDAWLDEADEIDVFAAFDASTQVIGEGSRNATLSRFAGRVLIRYGQTAQARDLFDRKASLCEPPLSDHELESIWQSACRFAAKVEAQPGYLSPEAYAELTSLRPEDFTDVGQASMLTAEYSSRLAFTEATDWLVYEGGVWSESAPAAQGIAQELTDRQLAEAGHLLEKARDELMVTGANAVLAAASSKAKALGGFTSPQRAAYRAFEDAKAYEAFVLKRRESRAITSCLREAHPMLLTTPARLDADPYLLNTPGGTWDVRDGTRRDHNPLDLITKQTALDPTDTGAEIWNRALNVFFQSDRELIGYVQRIVGLAAIGTVMVEALVIAYGDGRNGKSTFWNTIARVLGTYAGNMSADVLTIGGNRNVKPELAEAKGKRLIIAAESEEGVRLSTSTVKQLASTDQIYAEKKYKAPFAFTPSHTLILYTNHLPRVGAMDAGIWRRLIVIPFNAVIESSSDVKNYADHLYETAGGAVLAWIMEGSRLIHAEDYQLTPPAQVVAASSAYREENNWFAQFLDARCEVDPSLSERAGDLYQEYRAWAQSTSGWARPMADFNATLEQSGFERRKSKHGMYVYGLALTSEFNS	failed
MTPGSNIPLSAARVTVDVAAPVRLDVSGLLLTADGKVRSDDDFIFYNQPTGQGVTYRSGGGSAPDAIVVDTSAVPPGIEKIVVTASPDAAGQTFQGIEPTATIRNADDNAVLATFTPPQLGTETALVIVEVYLRNGAWKARAVGQGYSNGLAGIATDFGVTVEEPAAPATPPQPQAVTPPPPPAAAPTMPAAPPAPPAAPPAPAPGTGKINLDKGRVSLQKNQTVSLVKGGRPVLSQVKMGLGWEPAYRGKDIDLDASVIAYGPQRNHIDSCYFGKLSIVNGAIKHSGDNLTGEGGGDDEVIVVDLGRLPQEVSGLVFTVNSFSGQKFTEVAKAYCRLIDAASGEELVRFDLTSAEPQTGVMMAKLIRQYSGEWEMTAIGDFVKSRTVRGMVKPAAQAL	failed
MTPLHGAATPASASAAGSMKASHEASADPRSRFFDERAATWEQRCYPPEARRRLAALVPRFGVERGDCVLDMGTGTGVLIPYLRDGVGDAGRILSFDVSFEMVRRAGCKERDAKGLCVQATAMRIPARDGVFDRVVCFAAFPHFADKPAAMREMARVVRPGGEVVIAHLLSRAELARHHGGHPAVAEDALPDDATMRGLMHDAGLVEGSITDGPGMYVARARKPRTCRAGEGGVPGTPGTPGGRAGGSAGGEGAESAIAGDAEGNGSGVEAGFEARRVFTALKQNDAMHHSAVYGVLSGLLRAFACDAALPHGAPGQGGALRILDVGCGEAADVVQALEGVTVGAYTGVDTSAPALAEARRHLAALGCPVTLIEGDYRLALNTSQGSVDVLWMGLFLHHLPRALKADFLHTAHGLLAPGGMVLAHDPIMGEDDTRETMLARMEAIGRERWHFLTPEEVGMVHRHWSCHGHQERFSDLCALGEAAGFEVDMVWHDADRTYGLVRFMRRG	failed
MTPLMLMVVAGAGIALLLFLVLKYKFQPFVALMLVSIIVALVAGVKPADLVATIEGGMGKTLGHIAIIIALGAMIGRIIELSGGAEALAKTLINRFGNRRTPLALTVAGFMVGIPVFFEVGVIILMPLAYGVARAARKPLLIFALPMCAALLAVHAFLPPHPGAVAAASQLGADLGRVLMLGIPIVAVLCMIGYFVAGRMTRKTYPMTDDIRAEVYGPHVTNEDLEAWARNDYSGAREATETKTLGAEESASSLASKLPPAPAPGFGLIIALILLPIVLILMGTLATTLLPATSTLRAVLTVLGAPLVALLIDTLLCAWLLGSRRGWSRTQVSDVIGSALPGVAMVILIAGAGGVFGKVLVDTGIGAVVSEALRNTGLPVLALGFLLTLLLRAVQGSTTVALVTTAGILSPLIATLDLSANHLALLCLAMGGGGLAMSHINDAGYWMFTKLAGLNVADGLRTWTVLVTLLGTLGFVITLLLWPFV	failed
MTPPIINLPQRLGRSRRLAYGAATAGAWMVYFYLWAPLATLIAWFFGLRSAYTELYLQHNALDPFALGSLPVIALMSAITTVGWAEYNRLRFVNADKRRRPRTVAEPDVDQRLGATEQLGTLLRHSRISSVAMDKFARPVAVRVVRHR	failed
MTPSRDTKIILEGFCHPALNNPKPISVRFEKSILMVTGVNAGGKTMLLKSILSSAFLARYLIPMPILASKSSIGSFKGIAAVLDDPQSAKNDISTFAGRMLSFERFFKERGFLVGVDEIELGTDSDEAASLFKVILEQLIKRDFKIIITTHHKRLAALMAANEEVELMAALYDEKRQMPTFSFLQGTIGKSYAFETAERYGIPPFVIKEAKEVYGQDKEK	failed
MTQAFSRVRFIMTQPSHPGNVGSAARAIKTTGFGELVLVAPRFPDMTAQPEAVTLASGALDVLERAAVHDTLEEALAPVTLAFALTARVRDLGPPPCDIREAAGLARRHLDDTEAGVVAIVLGTERAGLTNAQIELCHRICHIPANPQYSSLNVAQALQLAAWELRYALLAGTGQSLLPASSAQQANPGAAPADGAAVQALLAHWEQALVAVGFLDPAHPKKLMPRMKHLLTRSALSRDEVDMLRGVCTAMIAPNRPK	failed
MTQDPIANLKLARKGPIVSIIVYLSLSVAKLLAGYLLNASSLIADGFNNLSDIVGNVALLIGLHLASQPADANHKFGHWKIEDLSSLVTSFIMFLVGFQVLIHTIKSIFSGQQVDIDPLGAIVGIVSAFVMLGVYVFNKRLSKRVKSSALVAASKDNLADAVTSIGTSIAIIAASLHLPVIDHIAAMIITFFILKTAFDIFMESSFSLSDGFDSRHLKKYEKAILEIPKIVAVKSQRARTYGSNVYLDIVLEMNPDLSVYESHSITEKVEQLLSDQFSIYDIDIHVEPAMIPEEEIFDNVAKKLYRYEKLILSKVPDYDHYIAKSFQLIDANGQTVNYEQFLNQEIYYPSNFNHFQIESISQKTMLVTYQLNGNQRTSIWRRHESWSLLFHQITPIAKKQLHHTHYRIVKM	failed
MTQHPFISRVAVRNYKSIGYCDVNLRPLTYLVGHNGAGKSNFMDALHFVCDALSYSLDSALNERGGINEVRRRSGGHPTHFALRVEFVMQSGQAGRYGFVIGALKNGGYEVQREECVVAGIGKGPFFRIEKGKLRDSSETTFPSVTADRLALVAASGLTAFRPVFDALTAMGFYNLNPKLMRELQKPQDGRLLRPAGENIASVIGHLEKVAPAQMALIQEYLHSVAPMVHGVERKPIGPMETLEFRQDMAGSKHPWRFLAQNMSDGTLRALGVLSALLQGNVDYSPTLIGIEEPETALHPAASAALREALVRASETTQVLVTSHSPDLLDDHSIDADAVLAVVSEAGETKVAPLDEGSRQVMRDHLFSAGELLRMNQLAPDRASLEQQDKAASGDLFGETESVLEHHHHHH	not failed
MTQMKIFVIGAHGQIGKKIVSKLVAQGDQVYAGIRQPEQAEAFEDAGAQPVQFNLMAQPEDLALAFNGMDAIVFAAGSGGQTGYDMTLMIDLDGAVKSMVAAKIAGVKRYVIISAEFTPDRSRWPRALQPYYVAKYYADEWLKNRTQLDYTILQPGTLINDAGTGKVTVNPDVGGEITRDDVATFTVQTLHTPATVGKTIALINGDTPISKAVQQA	failed

Source: a protein production outcome set (Wang et al. 2014)
